In PMC10200341 (Bioconjugate chemistry, 2022):
No end group written: not given here. FAM = fluorescein

Target: Nb6E (alpaca)
Assay: in-gel fluorescence of the crosslinked product

Kd: 206 nM
Binder: {FAM}-QADQCAAELARQIS (not fully specified (residue 5)) [FAM-1(NO2)]
